In this assay the target is human complement protein C1q (human) (UniProt P02745). Description: ELISA, 10 µg/ml human C1q, detection with HRP-conjugated anti-C1q antibody, antibody concentration varied. For orientation: ELISA stands for enzyme-linked immunosorbent assay.
Chain of human complement protein C1q (human) (P02745 23-245 limits assumed, chain 1 of 3): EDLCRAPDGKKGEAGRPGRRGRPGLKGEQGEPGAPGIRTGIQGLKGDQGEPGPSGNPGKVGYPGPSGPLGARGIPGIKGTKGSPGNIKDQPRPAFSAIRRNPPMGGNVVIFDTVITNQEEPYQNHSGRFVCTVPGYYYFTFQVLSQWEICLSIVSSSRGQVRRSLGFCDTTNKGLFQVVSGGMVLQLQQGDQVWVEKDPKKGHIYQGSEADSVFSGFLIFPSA
Chain of human complement protein C1q (human) (P02746 28-253 limits assumed, chain 2 of 3, further chain): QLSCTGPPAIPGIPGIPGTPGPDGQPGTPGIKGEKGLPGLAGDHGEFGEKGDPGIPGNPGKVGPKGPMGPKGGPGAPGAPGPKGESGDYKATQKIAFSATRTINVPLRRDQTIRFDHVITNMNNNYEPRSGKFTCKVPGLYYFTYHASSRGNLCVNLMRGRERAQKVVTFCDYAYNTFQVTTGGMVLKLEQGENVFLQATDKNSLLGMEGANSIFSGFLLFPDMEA
Chain of human complement protein C1q (human) (P02747 29-245 limits assumed, chain 3 of 3, further chain): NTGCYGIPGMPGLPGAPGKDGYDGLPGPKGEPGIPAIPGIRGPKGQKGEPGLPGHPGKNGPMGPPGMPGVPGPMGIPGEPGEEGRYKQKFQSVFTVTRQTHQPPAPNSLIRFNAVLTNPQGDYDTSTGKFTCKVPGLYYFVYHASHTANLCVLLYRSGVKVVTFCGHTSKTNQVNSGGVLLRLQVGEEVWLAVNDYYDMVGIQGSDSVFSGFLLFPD

As for Rituximab (antibody), the EC50 (read off the curve) was determined as 2 µg/mL.

What is called EC50 (read off the curve) is the midpoint of the concentration-response curve. A lower EC50 (read off the curve) goes with a more potent agent.

(Values after patent US20260055172A1.)
